The source of these data is the supplement of paper PMC9732359.

A short description of the series: protein stability index of a GFP-peptide fusion (yeast GPS) (PSI 1-4); higher = more stable; sorted into four equal gates, so the index is relative within each strain. The method in brief: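 The protein stability index of a peptide was calculated by multiplying its read frequency in each gate by that gate's number and adding the products. The peptides were tiled 17-residue stretches of yeast proteins, fused downstream of GFP on a Cherry-expressing plasmid and carried in yeast as a pooled library. Mid-log cultures in leucine-free medium were sorted into four equal gates by GFP/Cherry ratio, and each gate's plasmids were PCR-amplified and Illumina-sequenced.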

± gives the uncertainty stated by the source.

Consider RVRTDDSVLLNRGNKKR [YML031W/NDC1], for which the protein stability index reads like this: (doa10∆) 3.29 ± 0.13; (pdr5∆) 3.4 ± 0.16; (san1∆) 3.08 ± 0.058; (ubr1∆) 3.3 ± 0.097.

On to MPGMPNMPGMPKVTPQM [SRP54], for which the protein stability index came to 3.06 ± 0.17 (doa10∆), 3.2 ± 0.21 (pdr5∆), 2.65 ± 0.18 (san1∆) and 3.34 ± 0.1 (ubr1∆).

As to GLIVNPVKVSGTIKKIE [POP5], the protein stability index reads like this: (doa10∆) 2.41 ± 0.16; (pdr5∆) 2.97 ± 0.19; (san1∆) 2.95 ± 0.12; (ubr1∆) 2.26 ± 0.15.

SGVPRLKEILNVAKNMK [RPO21] yielded a protein stability index (doa10∆) of 1.23 ± 0.12, a protein stability index (pdr5∆) of 1.83 ± 0.12, a protein stability index (san1∆) of 1.32 ± 0.26 and a protein stability index (ubr1∆) of 1.4 ± 0.082.

For the sequence WKIPQNDIPQTESPLKT [SSN2], the protein stability index reads like this: (doa10∆) 2.71 ± 0.082; (pdr5∆) 2.23 ± 0.058; (san1∆) 2.13 ± 0.08; (ubr1∆) 2.38 ± 0.039.

For the sequence TLERVHLSYCSNLTIYP [GRR1], the protein stability index (doa10∆) worked out at 2.92 ± 0.067, the protein stability index (pdr5∆) was 3 ± 0.067, the protein stability index (san1∆) was 2.99 ± 0.15 and the protein stability index (ubr1∆) is 3 ± 0.05.

Consider IEKVDRENMICKIDFQK [RRI2], for which the protein stability index by setting is: (doa10∆) 3.04 ± 0.11; (pdr5∆) 3.03 ± 0.1; (san1∆) 3.18 ± 0.063; (ubr1∆) 3.15 ± 0.065.

As to PFQLDVADMLTPEYAAE [UBP6], the protein stability index (doa10∆) is 2.95 ± 0.17, the protein stability index (pdr5∆) was determined as 2.65 ± 0.19, the protein stability index (san1∆) worked out at 2.7 ± 0.085 and the protein stability index (ubr1∆) turned out to be 2.77 ± 0.16.

Sequence KLQKYGAAVRLTGSDRV [RPN7] gave a protein stability index (pdr5∆) of 3.62 ± 0.27 and a protein stability index (ubr1∆) of 2.99 ± 0.14.

Consider TSGTSSEQFNVWDWNNW [GAL11], for which the protein stability index is, setting by setting: (doa10∆) 2.56 ± 0.086; (pdr5∆) 3.11 ± 0.11; (san1∆) 2.71 ± 0.073; (ubr1∆) 2.73 ± 0.096.

QLLMGDIPELSFFHQSN [RPN3]: the protein stability index is, setting by setting: (doa10∆) 2.43 ± 0.067; (pdr5∆) 2.2 ± 0.054; (san1∆) 2.39 ± 0.077; (ubr1∆) 2.62 ± 0.039.

For the sequence AKGCEVVVSGKLRAARA [RPS3], the protein stability index runs as follows: (doa10∆) 3.15 ± 0.14; (pdr5∆) 3.24 ± 0.22; (san1∆) 3.42 ± 0.14; (ubr1∆) 3.25 ± 0.28.

With IIKQENFNSVNDANITS [SSN2], the protein stability index (pdr5∆) was 1.1 ± 0.11.

Consider KSNGLAPEIPEDLYYLI [RPS13], for which the protein stability index amounted to 2.65 ± 0.081 (doa10∆), 2.83 ± 0.13 (pdr5∆), 2.45 ± 0.11 (san1∆) and 2.4 ± 0.14 (ubr1∆).

On to AIPLQQVLSQSADPSLL [SWI1], for which the protein stability index reads like this: (doa10∆) 2.86 ± 0.22; (pdr5∆) 2.5 ± 0.13; (ubr1∆) 3.06 ± 0.17.

As for KRVHTLLTLIVREYEQP [ISW2], the protein stability index reads like this: (doa10∆) 3.28 ± 0.23; (pdr5∆) 2.55 ± 0.15; (san1∆) 3.06 ± 0.15; (ubr1∆) 3.46 ± 0.18.

The sequence VVTMSVKSVNDPSQNRL [RPC37] registered a protein stability index (doa10∆) of 2.27 ± 0.19, a protein stability index (pdr5∆) of 2.56 ± 0.27 and a protein stability index (san1∆) of 2.42 ± 0.17.

Turning to TSVIQDLSEKILNDIET [BRR2], the protein stability index by setting is: (doa10∆) 2.89 ± 0.1; (pdr5∆) 3.3 ± 0.11; (san1∆) 3.21 ± 0.061; (ubr1∆) 3.09 ± 0.076.

For the sequence SSPSHIELVVTEKEEAV [RPL17A], the protein stability index by setting is: (doa10∆) 2.08 ± 0.051; (pdr5∆) 2.74 ± 0.045; (san1∆) 2.3 ± 0.059; (ubr1∆) 2.08 ± 0.039.

In turn, EQTRTILSVKLAELINM [SRB6] yielded a protein stability index (san1∆) of 2.91 ± 0.24.

With VFVNTGLQNVRKVRTKK [SWP82], the protein stability index reads like this: (doa10∆) 2.51 ± 0.16; (pdr5∆) 2.35 ± 0.096; (san1∆) 2.78 ± 0.17; (ubr1∆) 3.11 ± 0.15.

Sequence NVNETMSRSLANGIINV [SMC3] yielded a protein stability index (doa10∆) of 2.75 ± 0.074, a protein stability index (pdr5∆) of 2.76 ± 0.061, a protein stability index (san1∆) of 2.96 ± 0.081 and a protein stability index (ubr1∆) of 2.73 ± 0.057.

MNNGSGRYLLTPPDDLH [SRB8] registered a protein stability index (doa10∆) of 2.41 ± 0.06, a protein stability index (pdr5∆) of 2 ± 0.044, a protein stability index (san1∆) of 2.29 ± 0.13 and a protein stability index (ubr1∆) of 2.63 ± 0.054.

On to VTPNDKIPEREEKSNEV [SIR4], for which the protein stability index is, setting by setting: (pdr5∆) 3.16 ± 0.24; (san1∆) 3.42 ± 0.21.

As for EYQIVYYNPQAGTKITI [RGR1], the protein stability index is, setting by setting: (doa10∆) 2.15 ± 0.13; (pdr5∆) 2.1 ± 0.22; (san1∆) 2.12 ± 0.13; (ubr1∆) 2.45 ± 0.1.

SMSLQSKNLGEINTALN [SWI1] showed a protein stability index (doa10∆) of 2.81 ± 0.12, a protein stability index (pdr5∆) of 2.9 ± 0.1 and a protein stability index (ubr1∆) of 3.08 ± 0.12.

With TVRVDKASTYGELVLDI [SNF12], the protein stability index amounted to 2.38 ± 0.06 (doa10∆), 2.38 ± 0.053 (pdr5∆), 2.02 ± 0.086 (san1∆) and 1.81 ± 0.044 (ubr1∆).

For QIFCVFSGKGVHKLRHY [GRR1], the protein stability index (doa10∆) is 2.67 ± 0.068, the protein stability index (pdr5∆) was determined as 2.88 ± 0.061, the protein stability index (san1∆) stood at 3.09 ± 0.066 and the protein stability index (ubr1∆) is 2.76 ± 0.053.

FIANEGVHTGQFIYAGK [RPL2A] registered a protein stability index (doa10∆) of 2.98 ± 0.22, a protein stability index (pdr5∆) of 2.44 ± 0.17 and a protein stability index (san1∆) of 2.04 ± 0.27.

As to SQLAQVAAFVNNYPNVE [BRR2], the protein stability index was found to be 2.33 ± 0.064 (doa10∆), 2.63 ± 0.068 (pdr5∆), 2.68 ± 0.067 (san1∆) and 2.76 ± 0.051 (ubr1∆).

DEVITEGQADIDMESDV [POP7] gave a protein stability index (doa10∆) of 3.18 ± 0.068, a protein stability index (pdr5∆) of 3.17 ± 0.058, a protein stability index (san1∆) of 3.33 ± 0.057 and a protein stability index (ubr1∆) of 3.22 ± 0.048.

As for PTMYTRLCICSGMLFEM [SIN4], the protein stability index came out at 1.29 ± 0.041 (doa10∆), 1.28 ± 0.041 (pdr5∆), 1.39 ± 0.08 (san1∆) and 1.44 ± 0.033 (ubr1∆).

In the case of PSSMATLLKNLRKKLNF [YJR042W/NUP85], the protein stability index is 2.91 ± 0.078 (doa10∆), 2.73 ± 0.075 (pdr5∆), 2.91 ± 0.079 (san1∆) and 2.89 ± 0.066 (ubr1∆).

ILTDLVNYRHFKAMEDV [ITC1]: the protein stability index (doa10∆) worked out at 2.94 ± 0.14, the protein stability index (pdr5∆) was found to be 2.98 ± 0.11, the protein stability index (san1∆) stood at 3.28 ± 0.068 and the protein stability index (ubr1∆) was found to be 3.39 ± 0.063.

On to KNTSSMDFLNSMENTPK [GAL11], for which the protein stability index is, setting by setting: (doa10∆) 1.83 ± 0.059; (pdr5∆) 1.67 ± 0.06; (san1∆) 2.33 ± 0.12; (ubr1∆) 3.02 ± 0.047.

For the sequence NNNETSKPAFSFGAKSD [YJL041W/NSP1], the protein stability index is 2.93 ± 0.11 (doa10∆), 3.1 ± 0.083 (pdr5∆), 3.15 ± 0.067 (san1∆) and 3.61 ± 0.29 (ubr1∆).
